Experiments:
CLD18A2 [1] = biological target: T1, CLD18A2; assay: cell ELISA, purified VHH 2 µg/ml on CHO-S-CLD18A2
T1 construct: also called claudin 18 splice variant A2; CHO-S-CLD18A2
Experimental: (§1) CHO-S, CHO-S-CLD18A1, and CHO-S-CLD18A2 are plated in 96-well plates at 5×10⁵ cells per well, and blocked with 3% BSA at room temperature for 1 h. The purified Anti-CLD18A2 VHH with HIS-tag is diluted to 2 μg/ml, add 100 μl to the blocked cells, and incubated for 1 h at room temperature. After washing, 100 μl/well of 1:5000 diluted mouse anti-his tag antibody (R&D Systems, Inc) was added and incubated at room temperature for 1 h. After washing, 100 μl/well of 1:10000 diluted HRP-Goat anti-mouse IgG antibody (Thermo Scientific) was added and incubated for 1 h at room temperature. After washing, TMB was added to develop color. The OD value is measured at 450 nm.

CLD18A1 [2] = biological target: T2, CLD18A1 (Homo sapiens (Human), UniProt P56856 1-261); assay: cell ELISA, purified HIS-tagged VHH on CHO-S-CLD18A1
T2 construct: also called claudin 18 splice variant A1; CHO-S-CLD18A1
Experimental: as §1

CLD18A2 [3] = biological target: T1, CLD18A2; assay: cell ELISA, his-tagged VHH titrated on CHO-S-CLD18A2
Experimental: (§2) CHO-S-CLD18A2 cells are plated in a 96-well plate at 5×10⁵ cells per well, and blocked with 3% BSA at room temperature for 1 h. The purified Anti-CLD18A2 VHH fused with histidine tag is diluted in gradients with 1% BSA, added to the blocked cells, and incubated for 1 h at room temperature. After washing, 100 μl/well of 1:5000 diluted mouse anti-his tag antibody (R&D Systems, Inc) was added and incubated at room temperature for 1 h. After washing, 100 μl/well of 1:10000 diluted HRP-Goat anti-mouse IgG antibody (Thermo Scientific) was added and incubated for 1 h at room temperature. After washing, TMB was added to develop color. The OD value is detected at 450 nm. The software GraphPad Prism v5.0 is used for data processing and mapping analysis, and the EC50 value of Anti-CLD18A2 VHH against CLD18A2 on cells is obtained to reflect the affinity of the VHH to CLD18A2.

CLD18A1 [4] = biological target: T2, CLD18A1; assay: cell ELISA, E. coli expression supernatant on CHO-S-CLD18A1
Experimental: (§3) The clones selected according to the results of the 96-well plates of CHO-S, CHO-S-CLD18A1, and CHO-S-CLD18A2 cells are cultured. pcomb3XSS plasmids containing a single VHH sequence are extracted, and transformed into E. coli respectively to expression host Rosetta DE3. The respective expression clones are selected and cultured, then induced with 0.2 mM IPTG at 30° C. overnight to facilitate the periplasm-expressed proteins leakage into the culture medium supernatant. The culture medium supernatant of 16 clones are examined by ELISA again: adding 100 μl/well of 1:5000 diluted mouse anti his tag antibody (R&D Systems, Inc), incubating at room temperature for 1 h, washing, adding 100 μl/well of 1:10000 diluted HRP-Goat anti-mouse IgG antibody (Thermo Scientific), incubating for 1 h at room temperature, and adding TMB to develop color after washing. The negative control is a clone transfected with negative plasmid. The cell ELISA results are shown in Table 1, and the specific binding clones are further selected. These clones are sequenced respectively. Amino acid sequence alignment is performed. Clones with identical sequences are removed and finally 8 different clones are obtained.

CLD18A2 [5] = biological target: T1, CLD18A2; assay: cell ELISA, E. coli expression supernatant on CHO-S-CLD18A2
Experimental: as §3

CLD18A2 [6] = biological target: T1, CLD18A2; assay: cell-based or functional assay
CLD18A2 [7] = biological target: T1, CLD18A2; assay: cell ELISA on CHO-S-CLD18A2, anti-his tag detection
Experimental: as §2
(§4) CHO-S-CLD18A2 and Jurkat cells are plated in 96-well plates at 5×10⁵/ml per well, and blocked with 3% BSA for 1 hat room temperature. The purified Anti-CLDN18×CD3 fusion protein, the Anti-C18.2-6 and Anti-C18.2-19 VHH prepared in Embodiment 4, and the anti-CD3 VHH are diluted in gradients with 1% BSA, and then added into the pre-blocked cells respectively, and then incubated at room temperature for 1 h. The following experimental process is the same as in Embodiment 4.3. […]

CD3 = biological target: T3, CD3 (human, UniProt P07766 23-207; P09693 23-182; P04234 22-171; P20963 22-164); assay: cell ELISA on CD3-positive Jurkat cells, anti-his tag detection
T3 construct: whole, on cells; also called CD3 positive cell Jurkat; cluster of differentiation 3
Experimental: as §2, §4

CLD18A2 [8] = biological target: T1, CLD18A2; assay: cell ELISA on CLD18A2-expressing cells, anti-human IgG Fc detection
Experimental: The Anti-C18.2-Fc fusion proteins are diluted in gradients with 1% BSA, and the HRP-Goat anti-Human IgG Fc (Novex) secondary antibody is diluted 1:20000. The cell ELISA method is the same as that described in Embodiment 3.2. The software GraphPad Prism v5.0 is used for data processing and mapping analysis. The binding curve and EC50 value of Anti-C18.2-Fc against CLD18A2 in cells are obtained to reflect the affinity of the antibody to CLD18A2.
The affinities of Anti-C18.2-hu19V1-Fc and Anti-C18.2-hu19V3-Fc are similar to that of Anti-C18.2-19-Fc, which are better than that of the positive control ch-175D10.

T2 sequence (P56856 whole entry, canonical isoform): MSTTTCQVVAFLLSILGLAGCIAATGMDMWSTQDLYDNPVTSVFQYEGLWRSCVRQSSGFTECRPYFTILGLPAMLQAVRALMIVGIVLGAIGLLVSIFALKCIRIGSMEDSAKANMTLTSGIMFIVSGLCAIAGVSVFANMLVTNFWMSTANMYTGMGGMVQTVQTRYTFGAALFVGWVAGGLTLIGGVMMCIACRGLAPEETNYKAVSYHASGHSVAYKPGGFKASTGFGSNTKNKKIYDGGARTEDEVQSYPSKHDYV
T3 sequence (P07766 23-207, chain 1 of 4): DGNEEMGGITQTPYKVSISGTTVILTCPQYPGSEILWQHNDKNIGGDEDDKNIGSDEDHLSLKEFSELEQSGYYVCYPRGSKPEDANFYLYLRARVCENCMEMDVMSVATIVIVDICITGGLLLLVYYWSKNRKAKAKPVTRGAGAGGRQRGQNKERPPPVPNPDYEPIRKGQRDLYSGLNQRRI
T3 sequence (P09693 23-182, chain 2 of 4): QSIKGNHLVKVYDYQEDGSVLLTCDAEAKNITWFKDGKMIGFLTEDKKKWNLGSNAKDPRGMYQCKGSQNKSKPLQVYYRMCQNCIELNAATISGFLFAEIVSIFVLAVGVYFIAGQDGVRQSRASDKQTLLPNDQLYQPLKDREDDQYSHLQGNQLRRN
T3 sequence (P04234 22-171, chain 3 of 4): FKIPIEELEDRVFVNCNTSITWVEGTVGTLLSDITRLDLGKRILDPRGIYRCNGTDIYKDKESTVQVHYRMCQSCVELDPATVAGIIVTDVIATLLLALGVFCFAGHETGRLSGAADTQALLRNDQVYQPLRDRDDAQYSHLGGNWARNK
T3 sequence (P20963 22-164, chain 4 of 4): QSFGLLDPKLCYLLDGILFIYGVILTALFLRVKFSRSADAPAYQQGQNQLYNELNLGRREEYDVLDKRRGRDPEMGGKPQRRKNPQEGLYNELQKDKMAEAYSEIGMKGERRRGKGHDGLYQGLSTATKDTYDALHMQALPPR

| Binder | OD450 nm (CLD18A2 [1]) [OD450 nm] | binding result (CLD18A1 [2]) | EC50 (CLD18A2 [3]) [nM] | OD450 nm (CLD18A1 [4]) [OD450 nm] | OD450 nm (CLD18A2 [5]) [OD450 nm] | EC50 of killing of NUGC-4-CLD18A2 with T cells (LDH release, E:T 10:1) (CLD18A2 [6]) [nM] | EC50 (CLD18A2 [7]) [nM] | EC50 (CD3) [nM] | EC50 (CLD18A2 [8]) [nM] |
| --- | --- | --- | --- | --- | --- | --- | --- | --- | --- |
| Anti-C18.2-20 (VHH, not shown: small tags and cut ends, Treated as one molecule; also called C18-20) VHH: QVQLVESGGGLVQPGGSLRLSCAASGSIFSINAMGWYRQAPGKQRELVAAITFGGGSTNYADSVKGRFTISRDNAKNTVYLQMNSLKPEDTAVYYCNADLLVGGFPRRNVYWGQGTQVTVSS | 0.621 | no binding (tested: 2 µg/ml) | 1.87 | 0.128 | 0.528 |  |  |  |  |
| Anti-C18.2-7 (VHH, not shown: small tags and cut ends, Treated as one molecule; also called C18-7) VHH: QVQLVESGGGLVQPGGSLRLSCAASGSIFLINAMGWYRQAPGKQRELVAVITRGGSANYTDSVKGRFTISRDNAKNTVYLQMNSLKPEDTAVYYCNADLNLRSDPFKWYTFWGQGTQVTVSS | 0.658 | no binding (tested: 2 µg/ml) | 2.12 | 0.132 | 0.594 |  |  |  |  |
| Anti-C18.2-28 (VHH, not shown: small tags and cut ends, Treated as one molecule; also called C18-28) VHH: QVQLVESGGGLVQPGGSLRLSCAASGSIFMINVMGWYRQAPGKQRELVAVITRGASTNYADSVKGRFTISRDNAKNTVYLQMNSLKPEDTAVYYCNADLNLASDPFKWYTYWGQGTQVTVSS | 0.598 | no binding (tested: 2 µg/ml) | 2.54 | 0.121 | 0.47 |  |  |  |  |
| Anti-C18.2-69 (VHH, not shown: small tags and cut ends, Treated as one molecule; also called C18-69) VHH: QVQLVESGGGLVQPGGSLRLSCAASGSIFSIPVMTWYRQALGKEREFVAGISKGGTSNYADSVKGRFTVSRDNAKNTVYLQMNSLKSEDTAVYYCNAQASSFGWMPLSDYWGQGTQVTVSS | 0.573 | no binding (tested: 2 µg/ml) | 2.23 | 0.253 | 0.608 |  |  |  |  |
| Anti-C18.2-19 (VHH, not shown: small tags and cut ends, Treated as one molecule; also called C18-19) VHH: QLQLVESGGGLVQPGGSLRLSCAASGVDISSDVMAWYRQAPGKQREFVSGLTRGGSINYADSVKGRFTISRDFAKNTVDLQMNSLKPEDTAVYYCNAEIYTGTFYPRSYWGQGTQVTVSS | 0.668 | no binding (tested: 2 µg/ml) | 1.25 | 0.121 | 0.565 |  |  |  |  |
| Anti-C18.2-15 (VHH, not shown: small tags and cut ends, Treated as one molecule; also called C18-15) VHH: QVQLVESGGGLVQPGGSLRLSCTASGSIFRIDGMHWYRQAPGKQRELVASITPSGITHYADSVKGRFTISRDIAKKMQYLQMNSLKPEDTAVYYCNAHLVKVGGVWSDEYWGQGTQVTVSS | 0.671 | no binding (tested: 2 µg/ml) | 2.89 | 0.189 | 0.685 |  |  |  |  |
| Anti-C18.2-32 (VHH, not shown: small tags and cut ends, Treated as one molecule; also called C18-32) VHH: QLQLVESGGGLVQPGGSLRLSCAASGEISSDAMAWYRQAPGKQRELVAGMTRGGSTNYADSVKGRFTISRDFAKNTVDLQMNSLKPEDTAVYYCNAEIYTGTFYPRSYWGQGTQVTVSS | 0.586 | no binding (tested: 2 µg/ml) | 2.21 | 0.107 | 0.526 |  |  |  |  |
| Anti-CLDN18×CD3-hu6V3 (bispecific antibody, Bispecific VHH; Expressed in Pichia pastoris; also called Anti-CLDN18×CD3 fusion protein) QVQLVESGGGLVQPGGSLRLSCAASGGIFSIGVMGWYRQAPGKGLELVATITSRGSTNYADSVKGRFTISRDNSKNTLYLQMNSLRAEDTAVYYCYADLIRPGDFYGMDYWGQGTLVTVSSGGGGSGGGGSGGGGSGGGGSGGGGSGGGGSGGGGSEVQLVESGGGPVQAGGSLRLSCAASGRTYRGYSMGWFRQAPGKEREFVAAIVWSGGNTYYEDSVKGRFTISRDNAKNTMYLQMTSLKPEDSATYYCAAKIRPYIFKIAGQYDYWGQGTQVTVSS |  |  |  |  |  | 0.0261 | 6.5 | 9.39 |  |
| Anti-C18.2-6 (VHH, not shown: small tags and cut ends, Treated as one molecule; also called C18-6) VHH: QLQLVESGGGLVQPGGSLRLSCAASGGIFSIGVMGWYRQAPGKQRELVATITSRGSTNYADSVKGRFTISGDNAKNTVYLQMNNLKPEDTAVYYCYADLIRPGDFYGMDYWGKGTLVTVSS | 0.719 | no binding (tested: 2 µg/ml) | 1.53 | 0.142 | 0.623 |  |  |  |  |
| ch-175D10 (antibody, V domains shown) VH: QVQLQQPGAELVRPGASVKLSCKASGYTFTSYWINWVKQRPGQGLEWIGNIYPSDSYTNYNQKFKDKATLTVDKSSSTAYMQLSSPTSEDSAVYYCTRSWRGNSFDYWGQGTTLTVSS VL: DIVMTQSPSSLTVTAGEKVTMSCKSSQSLLNSGNQKNYLTWYQQKPGQPPKLLIYWASTRESGVPDRFTGSGSGTDFTLTISSVQAEDLAVYYCQNDYSYPFTFGSGTKLEIKR |  |  |  |  |  |  |  |  | 2.59 |
| Anti-CLDN18×CD3-hu19V3 (bispecific antibody, Bispecific VHH; Expressed in Pichia pastoris; also called Anti-CLDN18×CD3 fusion protein) QVQLVESGGGLVQPGGSLRLSCAASGVDISSDVMAWYRQAPGKGLEFVSGLTRGGSINYADSVKGRFTISRDNSKNTLYLQMNSLRAEDTAVYYCNAEIYTGTFYPRSYWGQGTLVTVSSGGGGSGGGGSGGGGSGGGGSGGGGSGGGGSGGGGSEVQLVESGGGPVQAGGSLRLSCAASGRTYRGYSMGWFRQAPGKEREFVAAIVWSGGNTYYEDSVKGRFTISRDNAKNTMYLQMTSLKPEDSATYYCAAKIRPYIFKIAGQYDYWGQGTQVTVSS |  |  |  |  |  | 0.0207 | 4.6 | 10.4 |  |

— patent US20220259303A1 (ZHEJIANG DOER BIOLOGICS, published 2022)
